Experimental data as given in article PMC12171016, “hnRNP A1 induces aberrant CFTR exon 9 splicing via a newly discovered ESS element”.

Target: hnRNP A1 tandem RRMs (UP1-like) (UniProt P09651 1-196)
Test: fluorescence anisotropy; 35 C; NMR buffer: sodium phosphate pH 6.5 (50 mM for tandem RRMs, 25 mM for single RRMs), 1 mM BME, 50 uM EDTA, no added salt stated; ITC 25 C, NMR 298 K (10% D2O), FA 35 C
Details: protein: recombinant; tags: 2xHis6-lipoyl tag removed by TEV; label: 3' fluorescein

Chain of hnRNP A1 tandem RRMs (UP1-like) (P09651 1-196): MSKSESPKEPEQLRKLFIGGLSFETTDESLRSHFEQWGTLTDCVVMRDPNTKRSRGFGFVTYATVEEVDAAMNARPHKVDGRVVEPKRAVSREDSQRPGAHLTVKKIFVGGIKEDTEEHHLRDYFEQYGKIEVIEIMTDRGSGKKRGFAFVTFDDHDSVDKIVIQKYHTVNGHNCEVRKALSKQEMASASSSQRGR

Binder	Kd
CAGGGAUUUCGCGUA (ssRNA) [CFTR exon 9 ESS 15-mer ssRNA mut4]	117 nM
CAGGGAUUUGGGGAC (ssRNA) [CFTR exon 9 ESS 15-mer ssRNA wt]	99 nM
